Starred links: 1 amine or outer side, 2 acyl side, 3 side chain; linkers in the order of their positions; H or OH if unused. Positions of bridges follow the written chain, without caps; N, C: chain ends. Non-standard residues stand in square brackets, D forms with d. No end group written: not given here. TBMB = c1c(C[*:1])cc(C[*:3])cc1C[*:2]; Dap(Me) = CNC[C@H](N)C(=O)O
T1: hIL17-A (human, UniProt Q16552 24-155)
T1 construct: also called human IL-17A
T1 sequence (looked up): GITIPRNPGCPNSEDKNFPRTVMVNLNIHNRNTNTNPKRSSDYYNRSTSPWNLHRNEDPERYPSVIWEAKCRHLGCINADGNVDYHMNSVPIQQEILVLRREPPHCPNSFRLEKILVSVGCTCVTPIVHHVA

T2: hIL17-F (human, UniProt Q96PD4 31-163)
T2 construct: also called human IL-17F
T2 sequence (looked up): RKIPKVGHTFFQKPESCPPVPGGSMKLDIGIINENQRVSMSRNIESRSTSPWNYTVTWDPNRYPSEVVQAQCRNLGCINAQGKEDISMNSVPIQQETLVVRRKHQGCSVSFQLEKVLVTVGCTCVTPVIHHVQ

T3: IL-17A (UniProt Q16552 24-155)
T3 construct: also called Interleukin-17
T3 sequence (looked up): T1 sequence (looked up)

B1: BCY00008651 (peptide)
peptide: Ac-A[Dap(Me)]PQDLEL[Dap(Me)]TFLFGDCA
modifications: linker 2-9-16 via TBMB
notes: Bicyclic peptide on a TBMB scaffold; first and second cysteines of BCY00008655 replaced by Dap(Me); also called Ac-(28-06)(TBMB) Cys12Dap(Me)
B2: BCY00008649 (peptide)
peptide: Ac-ACPQDLEL[Dap(Me)]TFLFGDCA
modifications: linker 2-9-16 via TBMB
notes: Bicyclic peptide on a TBMB scaffold; second cysteine of BCY00008655 replaced by Dap(Me); also called Ac-(28-06)(TBMB) Cys2Dap(Me)
B3: BCY00008653 (peptide)
peptide: Ac-A[Dap(Me)]PQDLELCTFLFGD[Dap(Me)]A
modifications: linker 2-9-16 via TBMB
notes: Bicyclic peptide on a TBMB scaffold; first and third cysteines of BCY00008655 replaced by Dap(Me); also called Ac-(28-06)(TBMB) Cys13Dap(Me)
B4: BCY00008648 (peptide)
peptide: Ac-A[Dap(Me)]PQDLELCTFLFGDCA
modifications: linker 2-9-16 via TBMB
notes: Bicyclic peptide on a TBMB scaffold; first cysteine of BCY00008655 replaced by Dap(Me); also called Ac-(28-06)(TBMB) Cys1Dap(Me)
B5: BCY00008655 (peptide)
peptide: Ac-ACPQDLELCTFLFGDCA
modifications: linker 2-9-16 via TBMB
notes: Bicyclic peptide on a TBMB scaffold; also called Ac-(28-06)(TBMB)
B6: BCY00008654 (peptide)
peptide: Ac-A[Dap(Me)]PQDLEL[Dap(Me)]TFLFGD[Dap(Me)]A
modifications: linker 2-9-16 via TBMB
notes: Bicyclic peptide on a TBMB scaffold; all three cysteines of BCY00008655 replaced by Dap(Me); also called Ac-(28-06)(TBMB) Cys123Dap(Me)

Target: T1, hIL17-A
Experiment: IL-17 binding assay (Kd), as described in GB1720932.1

**Q.** With CPENELYCFLSSQQC (linker 1-8-15 via TBMB) [Reference Example A2, CPENELYCFLSSQQC] as the binder, how does the Kd read?
**A.** The Kd was 398 nM.

Target: T2, hIL17-F
Experiment: as above

**Q.** ACGYDYYCALYDICA (linker 2-8-14 via TBMB) [Reference Example A5, A-…-A] was tested. Which Kd did it give?
**A.** Its Kd is 198 nM.

**Q.** Which Kd does the source give for ACLWKDNCTHWSLCA (linker 2-8-14 via TBMB) [Reference Example A6, A-CLWKDNCTHWSLC-A] here?
**A.** The Kd was 392 nM.

Target: T3, IL-17A
Experiment: IL-17A binding assay, method analogous to WO 2011/141823; replicate n2

**Q.** How did the Ki turn out when B1 was run?
**A.** The Ki was 231 nM.

**Q.** With B2 as the binder, how does the Ki read?
**A.** Its Ki is 59.6 nM.

**Q.** B3 was tested. Which Ki did it give?
**A.** The Ki was 85.9 nM.

**Q.** How did the Ki turn out when B4 was run?
**A.** The Ki was 105 nM.

**Q.** Which Ki does the source give for B5 here?
**A.** Its Ki is 107 nM.

**Q.** For B6, which Ki is on record?
**A.** Its Ki is 89.3 nM.

Target: T3, IL-17A
Experiment: IL-17A binding assay, method analogous to WO 2011/141823; replicate n1

**Q.** For B1, which Ki is on record?
**A.** Its Ki is 298 nM.

**Q.** With B2 as the binder, how does the Ki read?
**A.** The Ki was 60.8 nM.

**Q.** Which Ki does the source give for B3 here?
**A.** The Ki was 173 nM.

**Q.** How did the Ki turn out when B4 was run?
**A.** Its Ki is 127 nM.

**Q.** With B5 as the binder, how does the Ki read?
**A.** Its Ki is 78.8 nM.

**Q.** B6 was tested. Which Ki did it give?
**A.** Its Ki is 100 nM.

Target: T3, IL-17A
Experiment: IL-17A binding assay, method analogous to WO 2011/141823; mean of n1 and n2

**Q.** How did the Ki turn out when B1 was run?
**A.** The Ki was 264 nM.

**Q.** With B2 as the binder, how does the Ki read?
**A.** The Ki was 60.2 nM.

**Q.** Which Ki does the source give for B3 here?
**A.** The Ki was 129 nM.

**Q.** Which Ki does the source give for B4 here?
**A.** Its Ki is 116 nM.

**Q.** How did the Ki turn out when B5 was run?
**A.** Its Ki is 93 nM.

**Q.** For B6, which Ki is on record?
**A.** The Ki was 94.7 nM.
